# Measured values reported in patent publication US11998613B2, “Antibody-drug conjugates containing an anti-mesothelin antibody and uses thereof” (DEVELOPMENT CENTER FOR BIOTECHNOLOGY, priority 2020, dated 2024).
# B1: DCBPR2002-4(DBCO-vc-MMAE): DCBPR2002-4Az reacted with DBCO-vc-MMAE; trimannosyl-conjugated ADC, DAR 3.89 (conjugate)
# VH: QVQLVQSGAEVKKPGASVKVSCKASGYSFTGYTMNWVRQAPGQGLEWMGLITPYNGASSYNQKFRGRVTMTRDTSISTAYMELSRLRSDDTAVYYCARGGYDGRGFDYWGQGTLVTVSS
# VL: EIVLTQSPATLSLSPGERATLSCSASSSVSYMHWYQQKPGQAPRLLIYDTSKLASGIPARFSGSGSGTDFTLTISSLEPEDFAVYYCQQWSKHPLTFGQGTKVEIKR
# How the values were obtained:
# [1] = test system: KLM-1 human pancreatic cancer xenograft; assay: KLM-1 xenograft model (Example 45); details: 15 mg/kg IV once weekly for 3 weeks
# Protocol: Formulations respectively comprising test article DCBPR2002-4(DBCO-vc-MMAE)(15 mg/kg), test article DCBPR2002-4(DBCO-vc-seco-DUBA)(15 mg/kg), test article DCBPR2002-4(DBCO-s-DM1) (15 mg/kg), test article DCBPR2002-2(DBCO-vc-MMAE)-2(DBCO-vc-seco-DUBA) (15 mg/kg), test article DCBPR2002-2(DBCO-vc-MMAE)-2(DBCO-s-DM1) (15 mg/kg), test article DCBPR2002-2(DBCO-vc-seco-DUBA)-2(DBCO-s-DM1) (15 mg/kg), and a corresponding vehicle were formulated by diluting the stock with a 25 mM sodium citrate buffer (pH6.5). Each of the formulations was administered intravenously (IV) once weekly for three weeks.
# The KLM-1 cells were maintained in vitro as a monolayer culture in RPMI-1640 medium supplemented with 10% fetal bovine serum at 37° C. in an atmosphere of 5% CO2 in air. The tumor cells were routinely sub-cultured twice weekly by trypsin-EDTA treatment. The cells growing in an exponential growth phase were harvested and counted for tumor inoculation.
# Male NOD SCID mice at age of 6-7 weeks were purchased from BioLasco Taiwan Co., LTD. and quarantined for one week. Five mice were housed in each cage. All animals were hosted in the animal facility with a 12-h light/12-h dark cycle at 19-25° C. Animals had free access to rodent pellet foods and water ad libitum.
# KLM-1 cells were subcutaneously (SC) implanted (4×10^6 cells in 1:1 PBS/matrigel mixture at 0.1 mL per mouse) into the right flank of male NOD SCID mice. When the average tumor volume had reached 300 mm^3, the mice were randomly divided into 7 groups (N=6 per group). Each of the vehicle, DCBPR2002-4(DBCO-vc-MMAE), DCBPR2002-4(DBCO-vc-seco-DUBA), DCBPR2002-4(DBCO-s-DM1), DCBPR2002-2(DBCO-vc-MMAE)-2(DBCO-vc-seco-DUBA), DCBPR2002-2(DBCO-vc-MMAE)-2(DBCO-s-DM1), DCBPR2002-2(DBCO-vc-seco-DUBA)-2(DBCO-s-DM1) was intravenously administered as 15 mg/kg once weekly for 3 weeks.
# The tumor volumes, body weights, mortality, and signs of overt toxicity were monitored and recorded three times weekly for 28 days. Tumor volumes were measured three times per week using calipers and calculated according to the formula: Tumor Volume=(w2×l)/2, where w=width and l=length in diameter (mm) of the tumor. […] One-way ANOVA followed by Dunnett's test was applied for comparison between the vehicle and test article-treated groups. Differences are considered significant at *P<0.05. Animals were weighed three times weekly until the completion of the study.
# [2] = test system: OVCAR-3 human ovarian cancer xenograft; assay: OVCAR-3 xenograft model (Example 46); assay type: in vivo, female NOD SCID mice
# Protocol: (§1) Five mice were housed in each cage.
# OVCAR-3 cells were subcutaneously (SC) implanted (1×10^7 cells in 1:1 PBS/matrigel mixture at 0.2 mL per mouse) into the right flank of female NOD SCID mice. […] Each of the vehicle, DCBPR2002-4(DBCO-vc-MMAE) (15 and 30 mg/kg), and DCBPR2002-4(DBCO-vc-seco-DUBA) (15 mg/kg) was intravenously administered once weekly for 3 weeks.
# (§2) Differences are considered significant at *P<0.05.
# [3] = test system: OVCAR-3 human ovarian cancer xenograft; assay: OVCAR-3 xenograft model (Example 48); assay type: in vivo, female NOD SCID mice; details: for tumor growth: TGI≥58% considered significant
# Protocol: as §1
# OVCAR-3 cells were subcutaneously (SC) implanted (1×10^7 cells in 1:1 PBS/matrigel mixture at 0.2 mL per mouse) into the right flank of female NOD SCID mice. […] Each of the vehicle, and DCBPR2002-4(DBCO-vc-MMAE) (5, 10, and 15 mg/kg) was intravenously administered once weekly for 3 weeks.
# as §2
# [4] = target: mesothelin protein (Homo sapiens, UniProt Q13421); assay: Binding kinetics of anti-mesothelin ADCs by surface plasma resonance (Biacore T100); details: analyte MSLN
# mesothelin protein, sequence (Q13421 with tags, fused parts or gaps): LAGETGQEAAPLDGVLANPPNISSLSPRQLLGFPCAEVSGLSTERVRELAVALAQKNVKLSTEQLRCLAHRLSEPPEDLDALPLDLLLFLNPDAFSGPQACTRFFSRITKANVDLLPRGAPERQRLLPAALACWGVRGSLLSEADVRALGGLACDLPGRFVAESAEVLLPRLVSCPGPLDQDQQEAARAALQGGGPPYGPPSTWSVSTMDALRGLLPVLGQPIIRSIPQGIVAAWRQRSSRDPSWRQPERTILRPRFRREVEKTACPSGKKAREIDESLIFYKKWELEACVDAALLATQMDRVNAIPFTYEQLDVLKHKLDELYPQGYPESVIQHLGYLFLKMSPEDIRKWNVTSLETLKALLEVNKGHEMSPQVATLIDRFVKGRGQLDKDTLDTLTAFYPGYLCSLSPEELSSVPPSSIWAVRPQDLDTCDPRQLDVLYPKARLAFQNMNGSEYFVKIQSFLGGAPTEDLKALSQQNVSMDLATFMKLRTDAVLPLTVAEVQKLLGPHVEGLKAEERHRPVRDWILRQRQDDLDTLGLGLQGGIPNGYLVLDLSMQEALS
# Protocol: The kinetic constant of the anti-mesothelin ADCs interaction against mesothelin was determined by surface plasma resonance (Biacore® T100, Biacore, Inc., Piscataway, NJ). The flow cell of the CM5 wafer was fixed with approximately 10,000 reaction units (RU) of anti-human IgG-Fc (Biacore®) in 10 mM glycine pH 5.0 at 10 μL/min for 600 seconds. 10 μg/mL of anti-mesothelin antibody and anti-mesothelin ADCs diluted in TBS at 10 μl/min were captured on CM5 chips. Four concentrations (from 3.7 to 100 nM) of human mesothelin recombinant protein and zero concentration (flow buffer) in 100 μl/min binding were recorded in PBS containing 1 mM CaCl2 for 3 minutes. The dissociation of the complex was measured for 10 minutes. The water surface was regenerated by injecting 3 M MgCl2 and 3 mM EGTA at 10 μl/min for 60 seconds. The curve obtained after subtracting the reference and buffer signals was taken into the 1:1 Langmuir binding model using the Biacore® T100 evaluation software (Biacore®).
# [5] = 15 mg/kg IV once weekly for 3 weeks
# [6] = 5 mg/kg IV once weekly for 3 weeks
# [7] = 10 mg/kg IV once weekly for 3 weeks
molecule,measurement,setting,value
B1,body weight changes,[1],No body weight loss was observed
same,ranking of efficacy potency,[1],DCBPR2002-4(DBCO-vc-seco-DUBA)=DCBPR2002-2(DBCO-vc-MMAE)-2(DBCO-vc-seco-DUBA)=DCBPR2002-2(DBCO-vc-seco-DUBA)-2(DBCO-s-DM1)>DCBPR2002-4(DBCO-vc-MMAE)>DCBPR2002-2(DBCO-vc-MMAE)-2(DBCO-s-DM1)>DCBPR2002-4(DBCO-s-DM1)
same,body weight changes,[2]; [5],No body weight loss was observed
same,body weight changes,[2]; 30 mg/kg IV once weekly for 3 weeks,No body weight loss was observed
same,body weight changes,[3]; [6],No body weight loss was observed
same,tumor growth,[3]; [6],significantly reduced OVCAR-3 tumor growth with a dose-dependent manner
same,body weight changes,[3]; [7],No body weight loss was observed
same,tumor growth,[3]; [7],significantly reduced OVCAR-3 tumor growth with a dose-dependent manner
same,body weight changes,[3]; [5],No body weight loss was observed
same,tumor growth,[3]; [5],significantly reduced OVCAR-3 tumor growth with a dose-dependent manner
same,Rmax(RU),[4],55.99 RU
same,Ka,[4]; antibody/ADC captured on CM5 chip via anti-human IgG-Fc,5.395E+6
same,dissociation rate constant (koff),"[4]; dissociation rate, antibody/ADC captured on CM5 chip",1.17E−4
